Results: paper PMC8105673

Target: scavenger receptor CD36 (human (endogenous in THP-1)) (UniProt P16671)
Experiment: flow cytometry on cells; THP-1-derived M1 macrophages pre-incubated with 50 μM HSAUT, HSA_(HOCl) or buffer for 15 min at 0 °C (surface binding, no internalization), then stained with a PE-conjugated anti-CD36 blocking antibody; binding of HSA read indirectly as loss of antibody staining

UniProt P16671, sequence (P16671 whole entry): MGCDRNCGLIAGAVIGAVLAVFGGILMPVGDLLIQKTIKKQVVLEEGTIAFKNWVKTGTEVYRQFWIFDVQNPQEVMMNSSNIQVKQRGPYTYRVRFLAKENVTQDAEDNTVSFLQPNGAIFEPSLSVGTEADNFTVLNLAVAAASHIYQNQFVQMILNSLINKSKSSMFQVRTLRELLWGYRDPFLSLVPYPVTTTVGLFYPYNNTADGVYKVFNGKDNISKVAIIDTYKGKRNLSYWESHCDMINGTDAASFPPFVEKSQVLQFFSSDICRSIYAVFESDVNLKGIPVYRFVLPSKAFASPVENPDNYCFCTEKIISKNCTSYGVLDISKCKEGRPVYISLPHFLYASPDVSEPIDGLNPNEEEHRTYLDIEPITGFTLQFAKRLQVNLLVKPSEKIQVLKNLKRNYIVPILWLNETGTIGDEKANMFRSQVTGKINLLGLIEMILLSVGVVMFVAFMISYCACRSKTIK

Work on “HOCl-modified human serum albumin (from UniProt P02768 25-609) (natural protein)” yielded a reduction of the binding of anti-CD36 antibody to the cells of 30%.
